# From IntAct's records for PubMed 24937146
# B1: Microtubule protein alp7 (Schizosaccharomyces pombe (strain ATCC 38366 / 972)), Q9URY2 (parent)
# chain: MSDIVSSSTDYSRRSPSSSSIGTNETDHTGFHEKRQGASSESLIPPAQRSSEESMPAPKLFPKLTSKPNPQLNLKDTLNKRVSDRLQALELNKSFDFSGTPRPMHPISHPLSQHKTPEFKHRKRNVESILTPKNPSLFSSSNAASQRGSLNTAPSNFAYSHSSSLQTSASSRPPVLSNGSFPRQTNTAPLNPPVHLKDNIRNSATPSTSQADIPTQYPINSTQKQQAKYEAEIEGYKAKLAGTYHEISVLQNTIVNVSGQLIAVNDQLQQLRSGKASTSPSTKDTNMRLVEGHNEETLALQRGKYTQEEVDKLIQERMEKVAEDLHAQYSAKHTQKINAFKANYARKYEATIQELQNQIGTAPNAPKISNSNWEEERRALKADNQTLQKQLEKAIQERQDMSDFLNNFKADMAKSDKLLMQQQSQQTGDLETLRLQLQALQEELRVEREERQQLIQMSEDLVIAMDQLNLEQKS
# partner: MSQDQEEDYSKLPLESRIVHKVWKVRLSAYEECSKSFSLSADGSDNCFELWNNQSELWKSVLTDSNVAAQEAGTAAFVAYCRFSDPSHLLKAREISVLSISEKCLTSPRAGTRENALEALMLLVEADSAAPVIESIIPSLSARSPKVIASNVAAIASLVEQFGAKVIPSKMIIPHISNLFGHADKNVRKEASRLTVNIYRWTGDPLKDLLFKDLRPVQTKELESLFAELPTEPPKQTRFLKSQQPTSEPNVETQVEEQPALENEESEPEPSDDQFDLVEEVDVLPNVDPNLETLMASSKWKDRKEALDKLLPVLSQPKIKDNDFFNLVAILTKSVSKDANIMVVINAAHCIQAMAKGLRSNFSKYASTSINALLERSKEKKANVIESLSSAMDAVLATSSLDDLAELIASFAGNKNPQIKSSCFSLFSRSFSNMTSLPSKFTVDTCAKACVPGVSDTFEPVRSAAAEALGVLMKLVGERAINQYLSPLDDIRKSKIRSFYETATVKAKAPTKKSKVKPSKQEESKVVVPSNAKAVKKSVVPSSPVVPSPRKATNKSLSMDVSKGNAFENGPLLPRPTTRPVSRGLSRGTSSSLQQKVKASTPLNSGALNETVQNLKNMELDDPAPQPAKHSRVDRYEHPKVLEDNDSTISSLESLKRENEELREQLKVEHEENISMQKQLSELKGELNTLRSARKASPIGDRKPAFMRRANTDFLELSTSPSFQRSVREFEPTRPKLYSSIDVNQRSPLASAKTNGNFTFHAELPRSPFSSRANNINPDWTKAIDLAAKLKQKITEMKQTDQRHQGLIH
# B2: Microtubule protein alp7 (Schizosaccharomyces pombe (strain ATCC 38366 / 972)), Q9URY2 (parent)
# chain: B1 chain
# partner: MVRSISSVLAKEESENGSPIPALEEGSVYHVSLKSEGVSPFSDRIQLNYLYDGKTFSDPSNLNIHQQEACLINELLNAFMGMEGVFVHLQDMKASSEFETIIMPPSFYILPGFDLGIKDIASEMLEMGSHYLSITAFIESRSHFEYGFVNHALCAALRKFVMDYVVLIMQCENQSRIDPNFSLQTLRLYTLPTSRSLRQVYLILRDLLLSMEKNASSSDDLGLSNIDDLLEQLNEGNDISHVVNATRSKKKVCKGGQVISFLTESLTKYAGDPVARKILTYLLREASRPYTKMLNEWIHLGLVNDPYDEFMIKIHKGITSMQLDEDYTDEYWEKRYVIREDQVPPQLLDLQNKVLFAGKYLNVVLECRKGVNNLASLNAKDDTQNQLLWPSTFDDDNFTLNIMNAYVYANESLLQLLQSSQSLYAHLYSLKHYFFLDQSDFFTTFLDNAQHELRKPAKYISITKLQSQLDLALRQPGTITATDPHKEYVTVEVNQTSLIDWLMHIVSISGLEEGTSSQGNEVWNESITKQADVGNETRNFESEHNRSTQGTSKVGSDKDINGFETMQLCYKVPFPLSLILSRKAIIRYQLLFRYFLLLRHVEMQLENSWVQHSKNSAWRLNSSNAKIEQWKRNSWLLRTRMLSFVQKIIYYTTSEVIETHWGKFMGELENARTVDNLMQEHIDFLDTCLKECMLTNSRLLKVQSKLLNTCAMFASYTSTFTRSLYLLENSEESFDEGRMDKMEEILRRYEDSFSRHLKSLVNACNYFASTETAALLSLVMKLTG
# B3: Microtubule protein alp7 (Schizosaccharomyces pombe (strain ATCC 38366 / 972)), Q9URY2 (parent)
# chain: B1 chain
# partner: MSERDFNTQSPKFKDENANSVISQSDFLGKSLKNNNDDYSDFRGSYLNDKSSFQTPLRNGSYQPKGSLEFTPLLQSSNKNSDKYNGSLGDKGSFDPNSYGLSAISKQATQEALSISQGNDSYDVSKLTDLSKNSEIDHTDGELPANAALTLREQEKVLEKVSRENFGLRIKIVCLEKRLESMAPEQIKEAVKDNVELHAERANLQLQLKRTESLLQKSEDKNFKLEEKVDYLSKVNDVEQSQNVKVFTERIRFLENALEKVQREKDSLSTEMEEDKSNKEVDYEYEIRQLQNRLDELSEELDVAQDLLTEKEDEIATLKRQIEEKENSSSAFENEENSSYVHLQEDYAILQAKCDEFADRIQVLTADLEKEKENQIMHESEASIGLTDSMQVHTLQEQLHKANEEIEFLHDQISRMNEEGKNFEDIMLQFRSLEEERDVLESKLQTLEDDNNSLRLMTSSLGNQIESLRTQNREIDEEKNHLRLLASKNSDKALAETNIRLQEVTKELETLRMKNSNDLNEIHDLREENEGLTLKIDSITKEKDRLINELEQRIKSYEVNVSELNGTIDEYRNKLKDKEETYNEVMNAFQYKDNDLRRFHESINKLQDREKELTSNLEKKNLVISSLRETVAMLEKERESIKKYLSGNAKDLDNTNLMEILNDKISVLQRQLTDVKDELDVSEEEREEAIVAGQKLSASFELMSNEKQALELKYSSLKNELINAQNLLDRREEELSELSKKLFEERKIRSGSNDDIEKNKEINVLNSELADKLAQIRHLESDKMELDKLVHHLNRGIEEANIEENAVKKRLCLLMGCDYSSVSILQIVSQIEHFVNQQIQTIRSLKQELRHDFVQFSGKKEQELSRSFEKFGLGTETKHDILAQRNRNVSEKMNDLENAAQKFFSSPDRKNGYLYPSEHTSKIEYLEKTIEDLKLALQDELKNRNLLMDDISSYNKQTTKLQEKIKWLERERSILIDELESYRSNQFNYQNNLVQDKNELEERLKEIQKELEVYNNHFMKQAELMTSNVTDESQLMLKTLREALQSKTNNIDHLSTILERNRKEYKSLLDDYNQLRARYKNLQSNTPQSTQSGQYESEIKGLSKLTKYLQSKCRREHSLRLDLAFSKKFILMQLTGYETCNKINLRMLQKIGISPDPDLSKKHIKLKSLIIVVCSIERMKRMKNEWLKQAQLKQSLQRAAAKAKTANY
# Variants of: B1
# Conditions: with alp14_schpo alp14, O94534
row,Variant,effect of a mutation on the interaction
1,MSDIVSSSTDYSRRSPSSSSIGTNETDHTGFHEKRQGASSESLIPPAQRSSEESMPAPKLFPKLTSKPNPQLNLKDTLNKRVSDRLQALELNKSFDFSGTPRPMHPISHPLSQHKTPEFKHRKRNVESILTPKNPSLFSSSNAASQRGSLNTAPSNFAYSHSSSLQTSASSRPPVLSNGSFPRQTNTAPLNPPVHLKDNIRNSATPSTSQADIPTQYPINSTQKQQAKYEAEIEGYKAKLAGTYHEISVLQNTIVNVSGQLIAVNDQLQQLRSGKASTSPSTKDTNMRLVEGHNEETLALQRGKYTQEEVDKLIQERMEKVAEDLHAQYSAKHTQKINAFAANAAAAAEATIQELQNQIGTAPNAPKISNSNWEEERRALKADNQTLQKQLEKAIQERQDMSDFLNNFKADMAKSDKLLMQQQSQQTGDLETLRLQLQALQEELRVEREERQQLIQMSEDLVIAMDQLNLEQKS [K341A;Y344A;R346A;K347A;Y348A],disrupting interaction

# Variants of: B2
# Conditions: with spc97_schpo alp4, Q9Y705
row,Variant,effect of a mutation on the interaction
1,MSDIVSSSTDYSRRSPSSSSIGTNETDHTGFHEKRQGASSESLIPPAQRSSEESMPAPKLFPKLTSKPNPQLNLKDTLNKRVSDRLQALELNKSFDFSGTPRPMHPISHPLSQHKTPEFKHRKRNVESILTPKNPSLFSSSNAASQRGSLNTAPSNFAYSHSSSLQTSASSRPPVLSNGSFPRQTNTAPLNPPVHLKDNIRNSATPSTSQADIPTQYPINSTQKQQAKYEAEIEGYKAKLAGTYHEISVLQNTIVNVSGQLIAVNDQLQQLRSGKASTSPSTKDTNMRLVEGHNEETLALQRGKYTQEEVDKLIQERMEKVAEDLHAQYSAKHTQKINAFAANAAAAAEATIQELQNQIGTAPNAPKISNSNWEEERRALKADNQTLQKQLEKAIQERQDMSDFLNNFKADMAKSDKLLMQQQSQQTGDLETLRLQLQALQEELRVEREERQQLIQMSEDLVIAMDQLNLEQKS [K341A;Y344A;R346A;K347A;Y348A],disrupting interaction

# Variants of: B3
# Conditions: with pcp1_schpo pcp1, Q92351
row,Variant,effect of a mutation on the interaction
1,MSDIVSSSTDYSRRSPSSSSIGTNETDHTGFHEKRQGASSESLIPPAQRSSEESMPAPKLFPKLTSKPNPQLNLKDTLNKRVSDRLQALELNKSFDFSGTPRPMHPISHPLSQHKTPEFKHRKRNVESILTPKNPSLFSSSNAASQRGSLNTAPSNFAYSHSSSLQTSASSRPPVLSNGSFPRQTNTAPLNPPVHLKDNIRNSATPSTSQADIPTQYPINSTQKQQAKYEAEIEGYKAKLAGTYHEISVLQNTIVNVSGQLIAVNDQLQQLRSGKASTSPSTKDTNMRLVEGHNEETLALQRGKYTQEEVDKLIQERMEKVAEDLHAQYSAKHTQKINAFAANAAAAAEATIQELQNQIGTAPNAPKISNSNWEEERRALKADNQTLQKQLEKAIQERQDMSDFLNNFKADMAKSDKLLMQQQSQQTGDLETLRLQLQALQEELRVEREERQQLIQMSEDLVIAMDQLNLEQKS [K341A;Y344A;R346A;K347A;Y348A],disrupting interaction
